Reference: the supplement of paper PMC9170038

Test system: MS2 coat protein
Assay: apparent KD of MS2 coat protein; designed switch direction (-1 OFF switch, 1 ON switch): 1; higher = weaker reporter binding
Summary of the method: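 Apparent KD, taken as the median over clusters for each design, was obtained by curve-fitting normalised cluster fluorescence. Designed RNA switches had been transcribed on Illumina chips by stalled E. coli RNA polymerase and titrated with SNAP-549-labelled MS2 coat protein, doubling from 0.7 or 1.5 nM to 3 µM.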

[1] = input ligand: microRNA oligo, concentration not stated
[2] = Eterna round: R95, input ligand: FMN 200 uM
[3] = Eterna round: R95, input ligand: microRNA oligo, concentration not stated
[4] = Eterna round: R95, input ligand: none

Sequence: AUAUGAGGAGCAGGAUAUGCGGAGAAGAAAGAAGCAGAAGGGCUCAUGGGACGACAUGAGGAUCACCCAUGUACUCCGCGAUGA [AK SSNG1-V2-5] (Eterna round: R96, puzzle: Same State NG 1)
- apparent KD of MS2 coat protein (input ligand: FMN 200 uM): 0.103 µM
- apparent KD of MS2 coat protein [1]: 0.52 µM
- apparent KD of MS2 coat protein (input ligand: none): 1.35 µM

Sequence: AUGCCAAAUGGAGGAUAUGGAGCCUUAUUGGCUCCAGAAGGUCAAACAUGAGGAUCACCCAUGUGGCAGUGGUCUAAUGACCAC [Eli NG1ss - 45] (Eterna round: R96, puzzle: Same State NG 1)
- apparent KD of MS2 coat protein (input ligand: FMN 200 uM): 0.11 µM
- apparent KD of MS2 coat protein [1]: 0.192 µM
- apparent KD of MS2 coat protein (input ligand: none): 0.368 µM

Sequence: AUGGUGCAGGUACAGGAUAUGUUGCUCGUAACAUGAGGAUCACCCAUGUACCUAUGAGAUUAAAUGCAGAAGGGUGCACACCACA [Mat - Same State 2 - Mod of UCT - D88] (puzzle: Same State 2)
- apparent KD of MS2 coat protein [2]: 0.0408 µM
- apparent KD of MS2 coat protein [3]: 0.325 µM
- apparent KD of MS2 coat protein [4]: 0.283 µM

Sequence: AUUAAACAUGAGGAUCACCCAUGUCAACAAAGUCGAGGAUAUGGGCAAAUAAAAUAAGAACCAGAAGGCGUAUAAU [salish99_ss1_r3_077] (puzzle: Same State 1)
- apparent KD of MS2 coat protein [2]: 0.0759 µM
- apparent KD of MS2 coat protein [3]: 0.363 µM
- apparent KD of MS2 coat protein [4]: 0.636 µM

Sequence: AUUAAACAUGAGGAUCACCCAUGUCAACAAAGUCGAGGAUAUGGGCAAAUAAAAUAAGAUCCAGAAGGCGAAUAAU [salish99_ss1_r3_067] (puzzle: Same State 1)
- apparent KD of MS2 coat protein [2]: 0.0557 µM
- apparent KD of MS2 coat protein [3]: 0.0168 µM
- apparent KD of MS2 coat protein [4]: 0.0195 µM

Sequence: AUUAAACAUGAGGAUCACCCAUGUCAACAAAGUCGAGGAUAUGGGCAAAUAAAAUAUGAACCAGAAGGCGAAUAAU [salish99_ss1_r3_064] (Eterna round: R96, puzzle: Same State 1)
- apparent KD of MS2 coat protein (input ligand: FMN 200 uM): 0.0329 µM
- apparent KD of MS2 coat protein [1]: 0.208 µM
- apparent KD of MS2 coat protein (input ligand: none): 0.263 µM

Sequence: AUUAAACAUGAGGAUCACCCAUGUCAACAAAGUCGAGGAUAUGGGCAAAUAAAAUAUGAACCAGAAGGCGAAUAAU [salish99_ss1_r3_064] (puzzle: Same State 1)
- apparent KD of MS2 coat protein [2]: 0.0321 µM
- apparent KD of MS2 coat protein [3]: 0.22 µM
- apparent KD of MS2 coat protein [4]: 0.412 µM

Sequence: AUUAAACAUGAGGAUCACCCAUGUCAACAAAGUCGAGGAUAUGGGCAAAUAAUAUAAGAACCAGAAGGCGAAUAAU [salish99_ss1_r3_058] (puzzle: Same State 1)
- apparent KD of MS2 coat protein [2]: 0.0321 µM
- apparent KD of MS2 coat protein [3]: 0.44 µM
- apparent KD of MS2 coat protein [4]: 0.275 µM

Sequence: AUUAAUAAUGCAGGAUAUGAUUAACAUGAGGAUCACCCAUGUGGUGUUGUGAGUAAGGAGAGUGAUCAGAAGGGCAUUUUUUUU [JMF's solution 27] (Eterna round: R96, puzzle: Same State NG 2)
- apparent KD of MS2 coat protein (input ligand: FMN 200 uM): 0.552 µM
- apparent KD of MS2 coat protein [1]: 0.374 µM
- apparent KD of MS2 coat protein (input ligand: none): 0.385 µM

Sequence: AUUACGAGCGUAGGAUAUGGGAAAGGAAGUGUACCAGAAGGACGAAUACAGCGUCCGGACAUGAGGAUCACCCAUGUAGGACGC [PowerStrip SSNG 1.19] (Eterna round: R96, puzzle: Same State NG 1)
- apparent KD of MS2 coat protein (input ligand: FMN 200 uM): 0.0115 µM
- apparent KD of MS2 coat protein [1]: 0.0218 µM
- apparent KD of MS2 coat protein (input ligand: none): 0.0261 µM

Sequence: AUUAUGUAUGCAGGAUAUGAUUAACAUGAGGAUCACCCAUGUGGUGUUGUGAGUAAGGAGAGUGAUCAGAAGGGCAUUUUUUUU [JMF's solution 64] (Eterna round: R96, puzzle: Same State NG 2)
- apparent KD of MS2 coat protein (input ligand: FMN 200 uM): 0.555 µM
- apparent KD of MS2 coat protein [1]: 0.333 µM
- apparent KD of MS2 coat protein (input ligand: none): 0.381 µM

Sequence: AUUAUUUCAUGAGGAUAUGGCACCUUAUUGGUGCCAGAAGGCAUGUCUAUAAGACAUGAGGAUCACCCAUGUUUAAAUUAUAUA [Eli NG1ss - 90] (Eterna round: R96, puzzle: Same State NG 1)
- apparent KD of MS2 coat protein (input ligand: FMN 200 uM): 0.0241 µM
- apparent KD of MS2 coat protein [1]: 0.164 µM
- apparent KD of MS2 coat protein (input ligand: none): 0.181 µM

Sequence: AUUGCUAGCACAGGAUAUCAUGCGAAAAUUGCGUGAGAAGGGUGGACUCUGUCAUUCACGGAGGACAUGAGGAUCACCCAUGUC [SameState NG1 #80] (Eterna round: R96, puzzle: Same State NG 1)
- apparent KD of MS2 coat protein (input ligand: FMN 200 uM): 0.193 µM
- apparent KD of MS2 coat protein [1]: 0.0319 µM
- apparent KD of MS2 coat protein (input ligand: none): 0.0623 µM
